Assay results from PMC7184779.

Target: SADS-CoV papain-like protease 2 (PLP2) domain of nsp3, wild type (SADS-CoV)

For “ubiquitin-AMC (from UniProt P0CG48 1-76) (natural protein)”, the kcat/Km of hydrolysis of Ub-AMC (AMC fluorescence, Michaelis-Menten fit) was 62700 M⁻¹ s⁻¹.
